Consider 4 substances from PMC9279372.

The target of this experiment is DEIP1-cYFP fusion protein (Arabidopsis thaliana). Put plainly: split reporter (BiFC, NanoBiT); BiFC with vector pBIFCt-2in1-CC in N. benthamiana, Agrobacterium co-infiltration with p19; protoplasts isolated three days after infiltration; YFP and RFP fluorescence by confocal microscopy; 80 protoplasts in two independent experiments for each interaction.
DEIP1-cYFP fusion protein (Arabidopsis thaliana), sequence (main, as listed by the source): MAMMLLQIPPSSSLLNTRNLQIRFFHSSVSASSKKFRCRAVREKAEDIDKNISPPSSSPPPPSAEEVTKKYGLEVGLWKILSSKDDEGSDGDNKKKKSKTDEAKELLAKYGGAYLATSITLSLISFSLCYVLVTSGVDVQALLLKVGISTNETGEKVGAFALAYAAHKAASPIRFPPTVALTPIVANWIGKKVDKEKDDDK

“DEIP1-cYFP fusion protein (natural protein)” returned a percent of transfected protoplasts with YFP fluorescence of 54%.
In the case of “PetD with the pea RBCS chloroplast transit peptide and C-terminal nYFP (from UniProt P56774 1-160)” it was 17%; in that of “PetB with the pea RBCS chloroplast transit peptide and C-terminal nYFP (from UniProt P56773 1-215)”, 28%; in that of “PetA with the pea RBCS chloroplast transit peptide and C-terminal nYFP (from UniProt P56771 36-320)”, 30%.
